Reference: patent US20220332804A1 (CSL INNOVATION, published 2022)
Where a chain is given by its changes, count along the chain named.

What was measured:
Assay in all cases: SPR, mAb captured, C2 mutant analyte;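 further: Anti-C2 mAbs captured on goat anti-human IgG Biacore CM5 chips, alanine or serine C2 surface mutants flowed over at 37 °C, double-referenced sensorgrams fitted to a 1:1 binding model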
human C2 A470S = target: T1, human C2 A470S (human, UniProt P06681 21-752)
T1 sequence: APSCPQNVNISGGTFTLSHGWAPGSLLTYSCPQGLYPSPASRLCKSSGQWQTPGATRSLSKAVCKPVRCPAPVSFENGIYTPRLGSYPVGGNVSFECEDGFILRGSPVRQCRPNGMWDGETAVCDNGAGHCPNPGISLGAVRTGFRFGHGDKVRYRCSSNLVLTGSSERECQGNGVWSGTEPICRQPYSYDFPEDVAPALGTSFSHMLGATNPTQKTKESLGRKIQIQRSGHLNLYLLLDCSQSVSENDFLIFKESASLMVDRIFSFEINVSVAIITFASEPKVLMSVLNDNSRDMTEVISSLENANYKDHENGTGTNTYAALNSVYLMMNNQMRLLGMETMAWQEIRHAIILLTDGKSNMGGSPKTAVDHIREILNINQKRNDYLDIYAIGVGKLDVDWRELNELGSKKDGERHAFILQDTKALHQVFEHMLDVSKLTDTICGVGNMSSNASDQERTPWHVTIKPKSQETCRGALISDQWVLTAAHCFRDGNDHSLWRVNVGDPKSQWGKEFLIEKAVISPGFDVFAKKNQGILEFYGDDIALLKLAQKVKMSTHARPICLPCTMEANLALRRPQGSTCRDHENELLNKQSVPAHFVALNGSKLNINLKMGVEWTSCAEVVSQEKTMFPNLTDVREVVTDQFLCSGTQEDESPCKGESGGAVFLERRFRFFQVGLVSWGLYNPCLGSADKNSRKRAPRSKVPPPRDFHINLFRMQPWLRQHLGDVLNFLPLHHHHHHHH
Protocol: (§1) Surface plasmon resonance (SPR, Biacore) was used for all binding affinity analyses. In brief, goat anti-human IgG was directly immobilised onto the carboxymethyl dextran surface of CM5 sensorchips to approximately 12,000 RU using standard NHS/EDC chemistry at pH 5. The immobilised antibody surface was pre-conditioned with ten injections of polyclonal human IgG (Privigen 60 s) prepared at 1 μg/mL. Ligands (anti-C2 mAbs) were captured at the beginning of each cycle as described below. An adjacent spot or flow cell in which only Polyclonal IgG was capture was used as a reference surface. The goat anti-human IgG Fc antibody surface was regenerate in 100 mM H3PO4, injected for 45 seconds at the end of each cycle. Experiments were performed at 37° C. and the flow rate of each experiment was kept constant at 30 μL/min.
(§2) Sensogram data was double-referenced against a reference anti-IgG surface (i.e. minus anti-C2 mAb) and blank buffer injections obtained within each experiment. The binding data was fit to 1:1 (kinetic or steady-state) model using local Rmax and null refraction index (RI=0) when appropriate. Buffers and solutions were filtered (0.22 μm) prior to use.

human C2 N471A = target: T2, human C2 N471A (human, UniProt P06681 21-752)
T2 sequence: T1 sequence with S450A, N451A
Protocol: as §1, §2

human C2 E267A = target: T3, human C2 E267A (human, UniProt P06681 21-752)
T3 sequence: T1 sequence with E247A, S450A
Protocol: as §1, §2

human C2 K415A = target: T4, human C2 K415A (human, UniProt P06681 21-752)
T4 sequence: T1 sequence with K395A, S450A
Protocol: as §1, §2

Kd (human C2 A470S): 32.8 nM
Kd (human C2 N471A): 32.8 nM
Kd (human C2 E267A): 26.2 nM
Kd (human C2 K415A): 46 nM
B1: RF16-214 (antibody, V domains shown)
VH: EVQLLESGGGLVQPGGSLRLSCAASGFTFSWYQMMWVRQAPGKGLEWVSRIYPSGGGTAYADSVKGRFTISRDNSKNTLYLQMNSLRAEDTAVYYCARDAGYGDNWGQGTLVTVSS
VL: QSALTQPPSVSVSPGQTASITCSGDKLGEKYASWYQQKAGQSPVMVIYQDRKRPSGIPERFSGSNSGNTATLTISGTQAMDEADYYCQAWDTRAVVFGGGTKLTVLG
